The text below walks through data of patent US20160287713A1 (CALIFORNIA INSTITUTE FOR BIOMEDICAL RESEARCH, published 2016).

Where no end group is shown, it is not given here. The star is where a group is joined. FA1 = tetradecanamide (myristoyl) lipid attached through an ethoxy-ethoxy-ethyl acetamide linker, made from Br-FA1, N-(2-(2-(2-(2-bromoacetamido)ethoxy)ethoxy)ethyl)tetradecanamide, CCCCCCCCCCCCCC(=O)NCCOCCOCCNC(=O)C*; FA2 = not defined here; FA3 = not defined here

In experiment [1] the target is T1, LGR7 (UniProt Q9HBX9 1-757, limits assumed).
T1 sequence (looked up): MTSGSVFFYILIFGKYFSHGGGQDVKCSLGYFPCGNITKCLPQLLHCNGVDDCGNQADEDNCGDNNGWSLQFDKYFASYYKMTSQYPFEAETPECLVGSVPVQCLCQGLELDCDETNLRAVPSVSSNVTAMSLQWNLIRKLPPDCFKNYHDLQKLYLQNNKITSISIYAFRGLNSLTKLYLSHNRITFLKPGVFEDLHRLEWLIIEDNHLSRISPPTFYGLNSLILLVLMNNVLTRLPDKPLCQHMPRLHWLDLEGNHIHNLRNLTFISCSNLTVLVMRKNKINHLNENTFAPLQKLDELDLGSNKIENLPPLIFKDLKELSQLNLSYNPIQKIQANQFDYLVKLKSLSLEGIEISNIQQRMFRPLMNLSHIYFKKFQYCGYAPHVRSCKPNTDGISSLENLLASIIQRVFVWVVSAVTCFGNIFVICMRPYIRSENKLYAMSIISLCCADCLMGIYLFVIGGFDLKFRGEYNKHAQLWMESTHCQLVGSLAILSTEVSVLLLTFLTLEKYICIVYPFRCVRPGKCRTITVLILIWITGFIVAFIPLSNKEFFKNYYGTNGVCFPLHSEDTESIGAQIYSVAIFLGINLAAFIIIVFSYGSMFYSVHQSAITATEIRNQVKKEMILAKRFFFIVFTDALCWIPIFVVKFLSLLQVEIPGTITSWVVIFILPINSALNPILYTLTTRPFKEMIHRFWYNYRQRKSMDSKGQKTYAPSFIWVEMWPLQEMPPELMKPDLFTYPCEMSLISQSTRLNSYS
Briefly: cell-based or functional assay.

Experiment [2] concerns the target T1, LGR7. Briefly: cell-based or functional assay. This is another data set of the same source.

B1: Relaxin-B-D1A, A-Q1C-FA1 (ligand)
chain 1: ASWMEEVIKLCGRELVRAQIAICGMSTWS
chain 2: C(FA1)LYSALANKCCHVGCTKRSLARFC
modifications: ends and bridges not checked; also: A and B chains disulfide-linked, pairing not given here
For the molecule B1, in experiment [1], the “Activity, fold drop compared to relaxin” value is 10 fold.

B2: Relaxin-B-D1A, A-A5C-FA3 (ligand)
chain 1: ASWMEEVIKLCGRELVRAQIAICGMSTWS
chain 2: QLYSC(FA3)LANKCCHVGCTKRSLARFC
modifications: ends and bridges not checked; also: A and B chains disulfide-linked, pairing not given here
For the molecule B2, in experiment [1], the “Activity, fold drop compared to relaxin” value was determined as 15 fold.

B3: Pro-Relaxin-B-D1A (ligand)
chain: MIEEGRDSWMEEVIKLCGRELVRAQIAICGMSTWSKRKPTGYGSRKKRQLYSALANKCCHVGCTKRSLARFC
As for B3, in experiment [1], the “Activity, fold drop compared to relaxin” value was 10 fold.

B4: Relaxin-B-D1A, A-R18C-FA3 (ligand)
chain 1: ASWMEEVIKLCGRELVRAQIAICGMSTWS
chain 2: QLYSALANKCCHVGCTKC(FA3)SLARFC
modifications: ends and bridges not checked; also: A and B chains disulfide-linked, pairing not given here
For B4, the “Activity, fold drop compared to relaxin” value in experiment [1] came out at 30 fold.

B5: Relaxin-B-D1AM25KM4K, A-Q1AH12K, B-S29C-FA1 (ligand)
chain 1: ASWKEEVIKLCGRELVRAQIAICGKSTWC(FA1)
chain 2: ALYSALANKCCKVGCTKRSLARFC
modifications: ends and bridges not checked; also: A and B chains disulfide-linked, pairing not given here
Turning to B5, the “Activity, fold drop compared to relaxin” value in experiment [1] stood at 25 fold.

B6: Relaxin-B-D1AM4KS29C-FA2 (ligand)
chain 1: ASWKEEVIKLCGRELVRAQIAICGMSTWC
chain 2: QLYSALANKCCHVGCTKRSLARFC
modifications: ends and bridges not checked; also: lipid conjugate FA2, site not given here
As to B6, in experiment [1], the “Activity, fold drop compared to relaxin” value was 40 fold.

B7: Relaxin-B-D1A, A-R18C-FA1 (ligand)
chain 1: ASWMEEVIKLCGRELVRAQIAICGMSTWS
chain 2: QLYSALANKCCHVGCTKC(FA1)SLARFC
modifications: ends and bridges not checked; also: A and B chains disulfide-linked, pairing not given here
As for B7, in experiment [1], the “Activity, fold drop compared to relaxin” value came to 15 fold.

B8: Relaxin-B-D1AM25KM4K, A-Q1AH12K, B-S29C-FA3 (ligand)
chain 1: ASWKEEVIKLCGRELVRAQIAICGKSTWC(FA3)
chain 2: ALYSALANKCCKVGCTKRSLARFC
modifications: ends and bridges not checked; also: A and B chains disulfide-linked, pairing not given here
For the molecule B8, the “Activity, fold drop compared to relaxin” value in experiment [1] stood at 150 fold.

B9: Relaxin-B-D1A (ligand)
chain 1: ASWMEEVIKLCGRELVRAQIAICGMSTWS
chain 2: QLYSALANKCCHVGCTKRSLARFC
modifications: ends and bridges not checked; cysteine pairing not given here
B9: the “Activity, fold drop compared to relaxin” value in experiment [1] amounted to 0 fold.

B10: Relaxin-B-D1A, A-Q1C-FA3 (ligand)
chain 1: ASWMEEVIKLCGRELVRAQIAICGMSTWS
chain 2: C(FA3)LYSALANKCCHVGCTKRSLARFC
modifications: ends and bridges not checked; also: A and B chains disulfide-linked, pairing not given here
For the molecule B10, the “Activity, fold drop compared to relaxin” value in experiment [1] was found to be 25 fold.

B11: Relaxin-B-D1AS29C-XTEN288 (ligand)
chain 1: ASWMEEVIKLCGRELVRAQIAICGMSTWC
chain 2: QLYSALANKCCHVGCTKRSLARFC
chain 3: SAGSPTGPGSEPATSGSETPGTSESATPESGPGSEPATSGSETPGTSESATPESGPGTSTEPSEGSAPGSPAGSPTSTEEGTSESATPESGPGSEPATSGSETPGTSESATPESGPGSPAGSPTSTEEGSPAGSPTSTEEGTSTEPSEGSAPGTSESATPESGPGTSESATPESGPGTSESATPESGPGSEPATSGSETPGSEPATSGSETPGSPAGSPTSTEEGTSTEPSEGSAPGTSTEPSEGSAPGSEPATSGSETPGTSESATPESGPGTSTEPSEGSAPSASR
For B11, the “Activity, fold drop compared to relaxin” value in experiment [1] was determined as 20 fold.

B12: Relaxin-B-D1A, A-A5C-FA2 (ligand)
chain 1: ASWMEEVIKLCGRELVRAQIAICGMSTWS
chain 2: QLYSC(FA2)LANKCCHVGCTKRSLARFC
modifications: ends and bridges not checked; also: A and B chains disulfide-linked, pairing not given here
B12: the “Activity, fold drop compared to relaxin” value in experiment [1] was 25 fold.

B13: Relaxin-B-D1AM25KS29C-FA2 (ligand)
chain 1: ASWMEEVIKLCGRELVRAQIAICGKSTWC
chain 2: QLYSALANKCCHVGCTKRSLARFC
modifications: ends and bridges not checked; also: lipid conjugate FA2, site not given here
As to B13, the “Activity, fold drop compared to relaxin” value in experiment [1] was determined as 48 fold.

B14: Relaxin-B-D1A, A-Q1C-FA2 (ligand)
chain 1: ASWMEEVIKLCGRELVRAQIAICGMSTWS
chain 2: C(FA2)LYSALANKCCHVGCTKRSLARFC
modifications: ends and bridges not checked; also: A and B chains disulfide-linked, pairing not given here
With B14, in experiment [1], the “Activity, fold drop compared to relaxin” value came to 15 fold.

B15: Tev-Relaxin (ligand)
chain 1: HHHHHHHHENLYFQSGGDSWMEEVIKLCGRELVRAQIAICGMSTWS
chain 2: QLYSALANKCCHVGCTKRSLARFC
Consider B15, for which, in experiment [2], the “Activity” value is 2 nM.

B16: GSGG-Relaxin-single-chain (ligand)
chain: GSGGDSWMEEVIKLCGRELVRAQIAICGMSTWSGGGRGGRQLYSALANKCCHVGCTKRSLARFC
With B16, the “Activity” value in experiment [2] amounted to 1 nM.

B17: Tev-Relaxin-C chain (ligand)
chain: HHHHHHHHENLYFQGSGGDSWMEEVIKLCGRELVRAQIAICGMSTWSKRSLSQEDAPQTPRPVAEIVPSFINKDTETINMMSEFVANLPQELKLTLSEMQPALPQLQQHVPVLKDSSLLFEEFKKLIRNRQSEAADSSPSELKYLGLDTHSRKKRQLYSALANKCCHVGCTKRSLARFC
With B17, in experiment [2], the “Activity” value was determined as 6 nM.

B18: Tev-Relaxin-B-S29C-FA1-C-Chain (ligand)
chain: HHHHHHHHENLYFQGSGGDSWMEEVIKLCGRELVRAQIAICGMSTWCKRSLSQEDAPQTPRPVAEIVPSFINKDTETINMMSEFVANLPQELKLTLSEMQPALPQLQQHVPVLKDSSLLFEEFKKLIRNRQSEAADSSPSELKYLGLDTHSRKKRQLYSALANKCCHVGCTKRSLARFC
modifications: lipid FA1 on the Cys at B-chain position 29 (from Br-FA1, Example 5)
As for B18, in experiment [2], the “Activity” value came out at 21 nM.

B19: Tev-Relaxin-single-chain (ligand)
chain: HHHHHHHHENLYFQGSGGDSWMEEVIKLCGRELVRAQIAICGMSTWSGGGRGGRQLYSALANKCCHVGCTKRSLARFC
As to B19, in experiment [2], the “Activity” value worked out at 14 nM.

B20: Tev-Relaxin-B-S29C-FA1-single-chain (ligand)
chain: HHHHHHHHENLYFQGSGGDSWMEEVIKLCGRELVRAQIAICGMSTWCGGGRGGRQLYSALANKCCHVGCTKRSLARFC
modifications: lipid FA1 on the Cys at B-chain position 29 (from Br-FA1, Example 5)
On to B20, for which the “Activity” value in experiment [2] is 29 nM.

B21: Tev-Relaxin-B-S29C-single-chain (ligand)
chain: HHHHHHHHENLYFQGSGGDSWMEEVIKLCGRELVRAQIAICGMSTWCGGGRGGRQLYSALANKCCHVGCTKRSLARFC
With B21, the “Activity” value in experiment [2] stood at 11 nM.

B22: Relaxin-B-D1A, A-R18C-FA2 (ligand)
chain 1: ASWMEEVIKLCGRELVRAQIAICGMSTWS
chain 2: QLYSALANKCCHVGCTKC(FA2)SLARFC
modifications: ends and bridges not checked; also: A and B chains disulfide-linked, pairing not given here
Turning to B22, in experiment [1], the “Activity, fold drop compared to relaxin” value was found to be 30 fold.

B23: Relaxin-B-D1AM25KM4K, A-Q1AH12K, B-S29C-FA2 (ligand)
chain 1: ASWKEEVIKLCGRELVRAQIAICGKSTWC(FA2)
chain 2: ALYSALANKCCKVGCTKRSLARFC
modifications: ends and bridges not checked; also: A and B chains disulfide-linked, pairing not given here
For the molecule B23, the “Activity, fold drop compared to relaxin” value in experiment [1] is 150 fold.

B24: Relaxin-A-H12K, B-D1AS29C-FA2 (ligand)
chain 1: ASWMEEVIKLCGRELVRAQIAICGMSTWC(FA2)
chain 2: QLYSALANKCCKVGCTKRSLARFC
modifications: ends and bridges not checked; also: A and B chains disulfide-linked, pairing not given here
Consider B24, for which the “Activity, fold drop compared to relaxin” value in experiment [1] worked out at 16 fold.
